Measured values from article PMC9061850, “Structural basis for the inhibition of IAPP fibril formation by the co-chaperonin prefoldin” (Nature Communications, 2022).
One block for each binder: values may come before it. Positions of bridges follow the written chain, without caps; N, C: chain ends. No end group written: not given here. *: point of attachment. Biotin = O=C1N[C@H]2[C@H](CS[C@H]2CCCCC(=O)*)N1; βAla = NCCC(=O)O

Columns and labels:
[1] = target: T1, Prefoldin from Pyrococcus horikoshii (PhPFD, α2β4 heterohexamer, 86.4 kDa) (Pyrococcus horikoshii, UniProt O58263 1-148; O58268 1-117, S98G); experiment: BLI; biotinylated monomeric IAPP immobilised on Super Streptavidin biosensors, quenched with biotin; PhPFD 0.5 µM to 150 µM in solution; room temperature; 50 mM MES/NaOH (pH 6.5), 25 mM MgCl2; steady state analysis; conditions: both partners purified
T1 construct: Prefoldin α-subunit, Pyrococcus horikoshii, with the point mutation S98G; Prefoldin β-subunit, Pyrococcus horikoshii; Used unlabelled (NMR titration, BLI, EM, ThT assays) and, for the PRE experiments, highly deuterated with 15N or 13CH3 labels on either the α- or the β-subunit; also called archaeal prefoldin; source: E. coli BL21 (DE3), α- and β-subunit from separate pET23c plasmids, purified …
T1 sequence 1: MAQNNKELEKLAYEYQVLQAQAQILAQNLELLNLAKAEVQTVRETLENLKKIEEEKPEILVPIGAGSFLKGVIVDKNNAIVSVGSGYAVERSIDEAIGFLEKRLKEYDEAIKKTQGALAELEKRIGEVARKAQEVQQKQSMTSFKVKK
T1 sequence 2: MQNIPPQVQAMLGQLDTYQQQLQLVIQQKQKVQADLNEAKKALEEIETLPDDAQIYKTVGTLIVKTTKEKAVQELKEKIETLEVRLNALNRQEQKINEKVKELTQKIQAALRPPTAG

[2] = target: T1, Prefoldin from Pyrococcus horikoshii …; experiment: NMR titration; unlabeled PhPFD added to 29 µM U-[15N]-IAPP, ratios 1:0 to 1:8; 2D 15N-SOFAST-HMQC at 30 °C; 25 mM MES/NaOH (pH 6.5), 25 mM MgCl2; TITAN global lineshape fitting, two-state model assuming 1:1 stoichiometry; apparent; conditions: both partners purified

- Kd [1]: 11 ± 1.2 µM
B1: biotinylated IAPP (biotinyl-[β-Ala]-[β-Ala]-IAPP-NH2), monomeric (peptide)
peptide: {Biotin-βAla-βAla}-KCNTATCATQRLANFLVHSSNNFGAILSSTNVGSNTY-NH2
modifications: disulfide 2-7
SMILES: CC[C@H](C)[C@H](NC(=O)[C@H](C)NC(=O)CNC(=O)[C@H](Cc1ccccc1)NC(=O)[C@H](CC(N)=O)NC(=O)[C@H](CC(N)=O)NC(=O)[C@H](CO)NC(=O)[C@H](CO)NC(=O)[C@H](Cc1c[nH]cn1)NC(=O)[C@@H](NC(=O)[C@H](CC(C)C)NC(=O)[C@H](Cc1ccccc1)NC(=O)[C@H](CC(N)=O)NC(=O)[C@H](C)NC(=O)[C@H](CC(C)C)NC(=O)[C@H](CCCNC(=N)N)NC(=O)[C@H](CCC(N)=O)NC(=O)[C@@H](NC(=O)[C@H](C)NC(=O)[C@@H]1CSSC[C@H](NC(=O)[C@H](CCCCN)NC(=O)CCNC(=O)CCNC(=O)CCCC[C@@H]2SC[C@@H]3NC(=O)N[C@@H]32)C(=O)N[C@@H](CC(N)=O)C(=O)N[C@@H]([C@@H](C)O)C(=O)N[C@@H](C)C(=O)N[C@@H]([C@@H](C)O)C(=O)N1)[C@@H](C)O)C(C)C)C(=O)N[C@@H](CC(C)C)C(=O)N[C@@H](CO)C(=O)N[C@@H](CO)C(=O)N[C@H](C(=O)N[C@@H](CC(N)=O)C(=O)N[C@H](C(=O)NCC(=O)N[C@@H](CO)C(=O)N[C@@H](CC(N)=O)C(=O)N[C@H](C(=O)N[C@@H](Cc1ccc(O)cc1)C(N)=O)[C@@H](C)O)C(C)C)[C@@H](C)O
notes: Human islet amyloid polypeptide (IAPP, amylin), 37 residues; numbers count on: the mature protein; Molecular mass 4271.9 Da, purity 99.2%; also called monomeric biotinylated IAPP; source: synthetic peptide (custom synthesized, Pepscan, Lelystad); not shown: biotin, N-terminal, kept

- Kd [2]: 61 µM
- koff [2]: ~6000 s⁻¹
B2: U-[15N]-labeled recombinant human IAPP (non-amidated), monomeric (peptide)
peptide: KCNTATCATQRLANFLVHSSNNFGAILSSTNVGSNTY-OH
modifications: ends and bridges not checked; also: U-[15N] isotope label
notes: Human islet amyloid polypeptide (IAPP, amylin); numbers count on: the mature protein; also called U-[15N]-IAPP; monomeric IAPP; source: preparative RP-HPLC as final step
